According to patent US20260266838A1 (NORDIC BIOSCIENCE A S, published 2026):
Ends that are not written are not given here.

Biological target: T1, monoclonal antibody (mAb) specific for the N-terminus amino acid sequence …, HRP-labeled, employed in the … (horseradish peroxidase (HRP) label, site not stated)
T1 construct: Mouse IgG2b / kappa from a hybridoma; also called HRP-labeled mAb; selected mAb
Test: competitive ELISA: selection peptide against coated …-K-biotin for the HRP-labeled mAb; 10 independent runs
Experimental: All incubation steps were performed in the dark with constant shaking at 300 rpm and followed by five times wash of the wells using washing buffer ([…], 50 mM NaCl, pH 7.2). A 10-point calibration curve was plotted using a 4-parameter logistic curve fit of the selection peptide dilutions. Data were analyzed using the SoftMax Pro version 7.1.0 software (Molecular Devices).
Antibody specificity was evaluated using synthetic peptides and calculated as percentage of signal inhibition of two-fold diluted selection and deselection peptides (Table 1). Unspecific binding was tested using a nonsense screening peptide (biotin-[…] (SEQ ID NO: 23)). IC50 (half-maximal inhibition concentration) was determined from 10 independent runs of the 10-point calibration curve. The technical lower limit of detection (LLOD) was calculated as the mean signal of 60 determinations of a blank sample (i.e., assay buffer) plus 3× standard deviation (SD). The upper limit of quantification (ULOQ) was determined from 10 independent runs of the calibration curve and determined as the highest concentration of selection peptide determined with a recovery percentage within 100±20% of the nominal concentration and a CV<20%. […] Two-fold dilutions of four human serum samples quantified in three independent runs were used to evaluate assay linearity, calculated as percentage of recovery of the undiluted sample. […]

T1 sequence (VH, as listed by the source, chain 1 of 2): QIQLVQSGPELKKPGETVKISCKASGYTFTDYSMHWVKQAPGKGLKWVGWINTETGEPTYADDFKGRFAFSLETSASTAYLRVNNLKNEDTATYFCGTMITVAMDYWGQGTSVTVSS
T1 sequence (VL, as listed by the source, chain 2 of 2): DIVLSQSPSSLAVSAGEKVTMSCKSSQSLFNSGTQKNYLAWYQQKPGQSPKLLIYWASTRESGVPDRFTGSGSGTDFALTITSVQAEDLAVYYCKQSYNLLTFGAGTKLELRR

IC50: 0.0369 µg/mL
B1: Selection peptide VDTLPQKPRE (peptide)
peptide: VDTLPQKPRE
modifications: not fully specified
notes: Synthetic peptide (Genscript); the end 75 follows from the ten residues; also called calibrator peptide
